Data from patent publication US20110190270A1, “METHODS OF TREATING THROMBOEMBOLIC DISORDERS” (MONASH UNIVERSITY, priority 2008, published 2011).

Test system: occlusive blood clot in the carotid artery
Assay: carotid artery occlusion model, clot lysis and vascular reperfusion
Assay type: in vivo, mice
Conditions: regimens A-H of FIGS. 8 and 9, blood flow monitored 60 minutes
Protocol: Mice were anaesthetised and minor surgery performed to expose to the carotid artery and jugular vein. A Doppler flow probe was placed around the carotid artery to monitor blood flow through this blood vessel, and a catheter placed in the jugular vein to administer drugs. A blood clot was formed in the carotid artery of the mouse through the delivery of a small electric current (4 mA for 1.25 min^g), resulting in complete blockage of blood flow through the vessel (blood flow=0 mls/min), as measured by the flow probe. After vessel blockade was established, various combinations of t-PA, urokinase, heparin, hirudin, HA1077 and Y27632 were administered, using concentrations and regimens indicated (A-H in FIGS. 8 and 9) and examined for their efficacy to dissolve blood clots and restore blood flow. Blood flow was monitored in mice receiving each drug combination for a further 60 minutes, and blood flow measurements recorded using computer software.

B1: t-PA: thrombolytic agent (protein, UniProt P00750 36-562, looked up)
Tissue-type plasminogen …: SYQVICRDEKTQMIYQQHQSWLRPVLRSNRVEYCWCNSGRAQCHSVPVKSCSEPRCFNGGTCQQALYFSDFVCQCPEGFAGKCCEIDTRATCYEDQGISYRGTWSTAESGAECTNWNSSALAQKPYSGRRPDAIRLGLGNHNYCRNPDRDSKPWCYVFKAGKYSSEFCSTPACSEGNSDCYFGNGSAYRGTHSLTESGASCLPWNSMILIGKVYTAQNPSAQALGLGKHNYCRNPDGDAKPWCHVLKNRRLTWEYCDVPSCSTCGLRQYSQPQFRIKGGLFADIASHPWQAAIFAKHRRSPGERFLCGGILISSCWILSAAHCFQERFPPHHLTVILGRTYRVVPGEEEQKFEVEKYIVHKEFDDDTYDNDIALLQLKSDSSRCAQESSVVRTVCLPPADLQLPDWTECELSGYGKHEALSPFYSERLKEAHVRLYPSSRCTSQHLLNRTVTDNMLCAGDTRSGGPQANLHDACQGDSGGPLVCLNDGRMTLVGIISWGLGCGQKDVPGVYTKVTNYLDWIRDNMRP
clot lysis and re-establishment of blood flow (in words): relatively moderate in its ability to lyse occlusive blood clots
